Laboratory results from PMC7015924.

Test system: His-SUMO-Piwi PAZ domain (Drosophila melanogaster)
Assay: ITC
Conditions: 2'-O-methyl at 3' end; ITC buffer not in material (PAZ purified in 10 mM Tris-HCl pH 8.0, 500 mM NaCl); cleavage assays 27 C, 17 h (bead/supernatant assay conditions not given) …

## 8-mer RNA with 3' 2'-O-methyl
  Kd: 4 µM
